Experimental data: paper PMC9123601 (Archives of biochemistry and biophysics, 2015)
Read-outs that look alike come from different tables or passages of the source.

Key:
SEC [1] = target: the molecule itself; assay: SEC
SEC [2] = target: the molecule itself; assay: SEC; remark: listed apart in the source

B1: Human Prx2, native, reduced (thiol cysteines) (enzyme, UniProt P32119 1-198, looked up)
chain: MASGNARIGKPAPDFKATAVVDGAFKEVKLSDYKGKYVVLFFYPLDFTFVCPTEIIAFSNRAEDFRKLGCEVLGVSVDSQFTHLAWINTPRKEGGLGPLNIPLLADVTRRLSEDYGVLKTDEGIAYRGLFIIDGKGVLRQITVNDLPVGRSVDEALRLVQAFQYTDEHGEVCPAGWKPGSDTIKPNVDDSKEYFSKHN
modifications: cysteines reduced (thiol)
SEC [1]
  stoichiometry N: 10

B2: Human Prx2, overoxidized (enzyme, UniProt P32119 1-198, looked up)
chain: B1 chain
modifications: overoxidized (so in the source)
SEC [2]
  stoichiometry N: 10
